# Patent US7064106B2, “Gene and use thereof” (Takeda Chemical Industries, Ltd., priority 1999, dated 2006)
# How the values were obtained:
# Type in all cases: cell-based
# [1] = target: T1, profilin II (Homo sapiens, UniProt P35080); test: Yeast two-hybrid HIS3 growth test, MD36 and profilin family; conditions: S. cerevisiae Y190; 40 mM 3-amino-1,2,4-triazole
# T1 construct: expressed in transfected cells; host or cells: Saccharomyces cerevisiae Y190
# T1 sequence (P35080 1-140 isoform P35080-2): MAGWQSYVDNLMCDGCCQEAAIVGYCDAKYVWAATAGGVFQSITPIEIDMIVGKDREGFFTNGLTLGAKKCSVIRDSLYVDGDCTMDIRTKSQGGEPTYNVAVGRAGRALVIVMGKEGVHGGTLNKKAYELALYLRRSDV
# From the text: The protein-protein interaction between MD36 and the profilin family was detected by the yeast two-hybrid system. Based on pGBT9 (CLONTECH), expression plasmids were constructed to express the coding regions of profiling I (Evangelista et al., Science, 276, 118–122, 1997; Imamura et al., EMBO J., 16, 2745–2755, 1997; Tanaka, Biochem. Biophys. Res. Commun., 267, 479–481, 2000), profilin II (Schluter et al., Biohim. Biophys. Acta, 1359, 97–109, 1997), and profiling IIL in the form fused to yeast GAL4-DNA-binding domain protein under control of yeast ADH1 promoter. These plasmids were named pG-PFNI, pG-PFNII and pG-PFNIII, respectively (yeast selection marker was TRP1). On the other hand, expression plasmids that express the full-length sequence (SEQ ID NO:1) of MD36, which is IRAP-BP protein, or the coding region from this N-terminus to the sequence (SEQ ID NO:33) including the proline-rich domain in the form fused to yeast […] activated domain protein under control of yeast ADH1 promoter was constructed based on pACT2 (CLONTECH), and named pACT-MD36 and pACT-MD36NT, respectively (yeast selection marker was LEU2). pG-PFNI, pG-PFNII, pG-PFNIII or, pGBT9 for control was co-transfected to yeast Saccharomyces cerevisiae Y190 together with pACT-MD36 or pACT-MD36NT, and yeast strains bearing plasmids from the two were selected on SD medium free of tryptophan and leucine. S. cerevisiae Y190 is originally a histidine auxotrophic strain but when the introduced proteins on the plasmids show the interactions, reporter gene HIS3 is expressed and the strain becomes capable of growing on a histidine-free plate. The yeast strain acquired was spread on tryptophan, leucine and histidine-free SD medium supplemented with 40 mM 3-amino-1,2,4-triazole.
# [2] = target: T2, IRAP (55–82) (Rattus norvegicus, UniProt P97629); test: Yeast two-hybrid quantification assay of β-galactosidase activity (CPRG); conditions: bait IRAP (55–82); prey MD36 cDNA base numbers 2995–3674; S. cerevisiae Y190; CPRG substrate
# T2 construct: expressed in transfected cells; host or cells: Saccharomyces cerevisiae Y190
# T2 sequence (P97629 55-82 limits assumed): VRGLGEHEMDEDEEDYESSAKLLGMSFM
# Protocol: In order to verify the binding of human MD36 to IRAP quantitatively, the β-galactosidase activity was assayed using CPRG (chlorophenol red-β-D-galactopyranoside) as substrate.
# Yeast bearing both bait and prey sought to detect the interactions therebetween was subjected to liquid culture. After the cells were recovered, the cell walls were disrupted by freezing/thawing with liquid nitrogen. After CRPG was added to a suspension of the disrupted cells, absorbance of these samples at 578 nm was measured in terms of the β-galactosidase activity. In the unit of β-galactosidase, the enzyme activity that one yeast cell is capable of hydrolyzing 1 μmol of CPRG into chlorophenol red and D-galactoside was made 1 unit. IRAP (55–82) was used as the bait sequence and as the prey sequence, the sequence (679 bp corresponding to the base numbers 2995–3674 in SEQ ID NO:3) directly isolated from human MD36 cDNA sequence by the yeast two-hybrid method was used. In addition, vector pGBT9 that expresses bait sequence-unfused GAL4-BD was used as a negative control. Using plasmids having these sequences, S. Cerevisiae Y190 was transformed and the β-galactosidase activity of the reconstructed yeast transformants was assayed. […] On the other hand, the binding activity was scarcely noted with the protein bearing GAL4-BD alone but no bait sequence (FIG. 19). […]
# [3] = target: T3, C-terminal cytoplasmic domain (amino acid numbers 451–492) of mouse GLUT1 (Mus musculus, UniProt P17809); test: Yeast two-hybrid β-galactosidase assay, interaction with glucose transporter; conditions: bait mouse GLUT1 (451–492); prey human MD36 cDNA 2995–3674 fused to GAL4-AD
# T3 construct: the C-terminal cytoplasmic domain (amino acid numbers 451–492) of mouse GLUT1; expressed in transfected cells; host or cells: Saccharomyces cerevisiae Y190
# T3 sequence (P17809 451-492): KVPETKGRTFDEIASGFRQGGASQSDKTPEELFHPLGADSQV
# Protocol: (§1) As the bait sequence, the C-terminal cytoplasmic domain (amino acid numbers 468–510; SEQ ID NO:13 and SEQ ID NO:14) of mouse GLUT4 was used. For control, similar procedures were performed using the C-terminal cytoplasmic domain (amino acid numbers 451–492) of mouse GLUT1, which is the other protein of glucose transporters. These sequences were isolated from the respective cDNAs by PCR using pfu polymerase (manufactured by Stratagene, Inc.) and constructed to be expressed as the fusion proteins in the GAL4-BD sequence of pGBT9 (manufactured by Clontech, Inc.). On the other hand, human MD36 cDNA (base numbers 2995–3674 in SEQ ID NO:3) fused to GAL4-AD was used as the prey sequence. S. Cerevisiae Y190 was transformed by these plasmids, and the binding activity of MD36 to each of the glucose transporters was assayed in terms of the β-galactosidase activity.
# [4] = target: T4, C-terminal cytoplasmic domain (amino acid numbers 468–510) of mouse GLUT4 (Mus musculus, UniProt P14142); test: as above; conditions: bait mouse GLUT4 (468–510); prey human MD36 cDNA 2995–3674 fused to GAL4-AD
# T4 construct: amino acid numbers 468–510; expressed in transfected cells; host or cells: Saccharomyces cerevisiae Y190
# T4 sequence (P14142 467-509): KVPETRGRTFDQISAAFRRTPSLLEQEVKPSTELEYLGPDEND
# Protocol: as §1
molecule,measurement,setting,value
"MD36: human skeletal muscle-derived IRAP binding protein, SEQ ID NO:1; C-terminal part (bases 2995–3674) used in binding tests (protein, listed as Homo sapiens) MAGGEDRGDGEPVSVVTVRVQYLEDTDPFACANFPEPRRAPTCSLDGALPLGAQIPAVHRLLGAPLKLEDCALQVSPSGYYLDTELSLEEQREMLEGFYEEISKGRKPTLILRTQLSVRVNAILEKLYSSSGPELRRSLFSLKQIFQEDKDLVPEFVHSEGLSCLIRVGAAADHNYQSYILRALGQLMLFVDGMLGVVAHSDTIQWLYTLCASLSRLVVKTALKLLLVFVEYSENNAPLFIRAVNSVASTTGAPPWANLVSILEEKNGADPELLVYTVTLINKTLAALPDQDSFYDVTDALEQQGMEALVQRHLGTAGTDVDLRTQLVLYENALKLEDGDIEEAPGAGGRRERRKPSSEEGKRSRRSLEGGGCPARAPEPGPTGPASPVGPTSSTGPALLTGPASSPVGPPSGLQASVNLFPTISVAPSADTSSERSIYKLHQTASVWAPESPPVPQSPPGQARLEARFLENVAAAETEKQVALAQGRAETLAGAMPNEAGGHPDARQLWDSPETAPAARTPQSPAPCVLLRAQRSLAPEPKEPLIPASPKAEPIWELPTRAPRLSIGDLDFSDLGEDEDQDMLNVESVEAGKDIPAPSPPLPLLSGVPPPPPLPPPPPIKGPFPPPPPLPLAAPLPHSVPDSSALPTKRKTVKLFWRELKLAGGHGVSASRFGPCATLWASLDPVSVDTARLEHLFESRAKEVLPSKKAGEGRRTMTTVLDPKRSNAINIGLTTLPPVHVIKAALLNFDEFAVSKDGIEKLLTMMPTEEERQKIEEAQLANPDIPLGPAENFLMTLASIGGLAARLQLWAFKLDYDSMEREIAEPLFDLKVGMEQLVQNATFRCILATLLAVGNFLNGSQSSGFELSYLEKVSEVKDTVRRQSLLHHLCSLVLQTRPESSDLYSEIPALTRCAKVDFEQLTENLGQLERRSRAAEESLRSLAKHELAPALRARLTHFLDQCARRVAMLRIVHRRVCNRFHAFLLYLGYTPQAAREVRIMQFCHTLREFALEYRTCRERVLQQQQKQATYRERNKTRGRMITETEKFSGVAGEAPSNPSVPVAVSSGPGRGDADSHASMKSLLTSRPEDTTHNRRSRGMVQSSSPIMPTVGPSTASPEEPPGSSLPSDTSDEIMDLLVQSVTKSSPRALAARERKRSRGNRKSLRRTLKSGLGDDLVQALGLSKGPGLEV","growth of yeast on tryptophan, leucine and histidine-free SD medium",[1],did not grow
same,β-galactosidase activity,[2],about 70 units
same,binding activity of MD36 to glucose transporter in terms of β-galactosidase activity,[3],scarcely bound
same,binding activity of MD36 to glucose transporter in terms of β-galactosidase activity,[4],bound
